Data on three molecules can be found in paper PMC3985065 (Protein expression and purification, 2014).

The target of series [1] is T1, mouse glycine N-acyltransferase (mGLYAT) (Mus musculus, UniProt Q91XE0).
T1 sequence (Q91XE0 1-296): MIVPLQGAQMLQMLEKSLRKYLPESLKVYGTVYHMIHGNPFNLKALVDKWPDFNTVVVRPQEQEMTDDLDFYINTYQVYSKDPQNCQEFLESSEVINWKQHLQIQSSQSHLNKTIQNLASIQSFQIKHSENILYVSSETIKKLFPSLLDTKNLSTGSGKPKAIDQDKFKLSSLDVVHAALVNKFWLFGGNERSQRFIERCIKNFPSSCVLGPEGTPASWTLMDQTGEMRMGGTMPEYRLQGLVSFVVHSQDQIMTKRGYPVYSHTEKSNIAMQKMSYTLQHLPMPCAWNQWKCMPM
Nature of the series: DTNB assay of CoA-SH release, […] benzoyl-CoA and […] glycine. In kind it is biochemical.

Substrate in series [2]: CC(=O)SCCNC(=O)CCNC(=O)[C@H](O)C(C)(C)COP(=O)(O)OP(=O)(O)OC[C@H]1O[C@@H](n2cnc3c(N)ncnc32)[C@H](O)[C@@H]1OP(=O)(O)O
Nature of the series: purified protein. To be noted: amino acceptor substrate.

Substrate in series [3]: CC(C)(COP(=O)(O)OP(=O)(O)OC[C@H]1O[C@@H](n2cnc3c(N)ncnc32)[C@H](O)[C@@H]1OP(=O)(O)O)[C@@H](O)C(=O)NCCC(=O)NCCSC(=O)c1ccccc1
Nature of the series: purified protein. In kind it is biochemical, Mus musculus. The following applies: amino acceptor substrate.

Substrate in series [4]: CCCC(=O)SCCNC(=O)CCNC(=O)[C@H](O)C(C)(C)COP(=O)(O)OP(=O)(O)OC[C@H]1O[C@@H](n2cnc3c(N)ncnc32)[C@H](O)[C@@H]1OP(=O)(O)O
Nature of the series: purified protein. In kind it is biochemical, Mus musculus. The following applies: amino acceptor substrate.

Substrate in series [5]: CCCCCC(=O)SCCNC(=O)CCNC(=O)[C@H](O)C(C)(C)COP(=O)(O)OP(=O)(O)OC[C@H]1O[C@@H](n2cnc3c(N)ncnc32)[C@H](O)[C@@H]1OP(=O)(O)O
The experiment in a line: purified protein. In kind it is biochemical, Mus musculus. The following applies: amino acceptor substrate.

Substrate in series [6]: CCOC(=O)CN
Nature of the series: purified protein. In kind it is biochemical, Mus musculus. To be noted: benzoyl-CoA (co-substrate) amino donor substrate.

Substrate in series [7]: COC(=O)CN
Nature of the series: purified protein. The following applies: benzoyl-CoA (co-substrate) amino donor substrate. In kind it is biochemical, Mus musculus.

Substrate in series [8]: NCC(=O)O
Nature of the series: purified protein. In kind it is biochemical, Mus musculus. To be noted: benzoyl-CoA (co-substrate) amino donor substrate.

Broadly, the IC50 is the concentration that inhibits the measured activity by half. In series [1], `O=C(O)CO` [Glycolic acid] yielded an IC50 of 58 ± 4.9 mM.

Turning to `CCCCCCCC/C=C\CCCCCCCC(=O)SCCNC(=O)CCNC(=O)[C@H](O)C(C)(C)COP(=O)(O)OP(=O)(O)OC[C@H]1O[C@@H](n2cnc3c(N)ncnc32)[C@H](O)[C@@H]1OP(=O)(O)O` [Oleoyl-CoA], the IC50 in series [1] is 0.021 ± 0.0034 mM.

B1: mouse glycine N-acyltransferase (mGLYAT) (Mus musculus) (protein)
chain: T1 sequence (Q91XE0 1-296)
A word on the Km: it is the substrate concentration at which the rate is half of its maximum. The kcat is the maximal rate divided by the concentration of active sites. A word on the kcat/Km: it is the second-order rate constant that governs catalysis at low substrate concentration. With B1, the Km in “purified protein [2]” was 209 ± 43 µM; in “purified protein [3]” it was 9.4 ± 14 µM; in “purified protein [4]” it was 52 ± 7.9 µM; in the series “purified protein [5]”, 45 ± 3.0 µM; in the series “purified protein [6]”, 9700 ± 1700 µM; in the series “purified protein [7]” it was 29000 ± 9100 µM. In addition, the Km in “purified protein [8]” is 6100 ± 1200 µM. Further, the kcat stood at 0.8 s⁻¹ in “purified protein [2]”; 4.2 ± 0.25 s⁻¹ in “purified protein [3]”; 15 ± 0.43 s⁻¹ in the series “purified protein [4]”; 4.6 ± 0.085 s⁻¹ in “purified protein [5]”; 0.57 ± 0.023 s⁻¹ in the series “purified protein [6]”; 1 ± 0.12 s⁻¹ in the series “purified protein [7]”. Besides, in “purified protein [8]”, the kcat worked out at 3.2 ± 0.12 s⁻¹. Further, the kcat/Km in “purified protein [2]” came out at 3800 M⁻¹ s⁻¹; in the series “purified protein [3]”, 450000 ± 27000 M⁻¹ s⁻¹; in “purified protein [4]”, 290000 ± 8200 M⁻¹ s⁻¹; in “purified protein [5]” it was 100000 ± 1900 M⁻¹ s⁻¹; in “purified protein [6]”, 59 ± 2.3 M⁻¹ s⁻¹; in “purified protein [7]”, 35 ± 4.1 M⁻¹ s⁻¹. In addition, in “purified protein [8]”, the kcat/Km came out at 520 ± 20 M⁻¹ s⁻¹.
